Measurements reported in PMC9352680, “A comprehensive thermodynamic model for RNA binding by the Saccharomyces cerevisiae Pumilio protein PUF4”.

T1: PUF4 RNA-binding domain (Saccharomyces cerevisiae, UniProt P25339 537-888)
T1 sequence: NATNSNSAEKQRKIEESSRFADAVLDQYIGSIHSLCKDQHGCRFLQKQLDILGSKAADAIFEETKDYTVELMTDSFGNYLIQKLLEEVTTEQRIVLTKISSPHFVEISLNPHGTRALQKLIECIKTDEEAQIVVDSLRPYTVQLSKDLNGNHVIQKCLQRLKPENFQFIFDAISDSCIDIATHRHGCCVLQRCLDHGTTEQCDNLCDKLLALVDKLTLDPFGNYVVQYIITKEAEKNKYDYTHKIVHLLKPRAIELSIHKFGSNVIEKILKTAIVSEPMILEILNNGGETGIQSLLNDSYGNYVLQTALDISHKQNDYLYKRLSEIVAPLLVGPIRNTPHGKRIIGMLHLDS


Biological target: T1, PUF4 RNA-binding domain
Assay: Mg; RNA-MaP; 20 mM Na-HEPES pH 7.4, 30 mM KOAc, 0.75 mM MgCl2, 0.1% Tween-20, 5% glycerol, 0.1 mg/mL BSA, 2 mM DTT; 25 C; 0.0125-409.6 nM protein
Details: tags: N-His6-TEV cleaved; C-SNAP kept, Cy3B-labelled; label: tethered on chip by stalled RNA polymerase

Row | Binder | Kd
1 | ACAAACGGAACACUAUAUAACAAAC (ssRNA) [Id_i_S3_P3E.7_K3.3_C3.3_[T-3G]_[C-2G]_[T-1A]_H3.3_A3.1_F3.1_T3.2] | 1440 nM
2 | ACAAACGGCUAUAUAUAUAACAAAC (ssRNA) [Id_i_S3_P3E.6_K3.2_C3.3_[T-3G]_[C-2G]_[T-1C]_H3.2_A3.1_F3.1_T3.2] | 1360 nM
3 | UCUCUUGCUGUAUAUAAUUCUCUU (ssRNA) [Id_ii_S1_P3E.2_K3.1_C3.2_[C-2G]_[T-1C]_H3.1_A3.1_F3.1_T3.2_[T9A]_[A10T]] | 12.4 nM
4 | ACAAACGCACACUAUAUAACAAAC (ssRNA) [Id_ii_S3_P3E.4_K3.3_C3.2_[C-2G]_[T-1C]_H3.3_A3.1_F3.1_T3.2] | 1830 nM
5 | ACAAACAGGUAUAUAUAUAACAAAC (ssRNA) [Id_i_S3_P3E.6_K3.2_C3.3_[T-3A]_[C-2G]_[T-1G]_H3.2_A3.1_F3.1_T3.2] | 566 nM
6 | UCUCUUGCUGUAUAUACCUCUCUU (ssRNA) [Id_ii_S1_P3E.2_K3.1_C3.2_[C-2G]_[T-1C]_H3.1_A3.1_F3.1_T3.2_[T9C]_[A10C]] | 17.3 nM
7 | UCUCUUAGCAUAUUAUCUCUU (ssRNA) [Ib_S1_P4E.1_K4.1_C4.1_H4.1_[T1A]_[T3C]_A4.1_F4.1_T4.1] | 1930 nM
8 | Id_i_S4_P3E.5_K3.1_C3.3_[T-3C]_[C-2G]_[T-1C]_H3.1_A3.1_F3.1_T3.2 (ssRNA) RNA: UUUGACAACUGAUCGUUCUUUCUCGCUGUAUAUAUAUUCUUUCUCGAUCAGUUGUCUUU | 1.51 nM
9 | Id_i_S4_P3E.5_K3.1_C3.3_[T-3C]_[C-2T]_[T-1G]_H3.1_A3.1_F3.1_T3.2 (ssRNA) RNA: UUUGACAACUGAUCGUUCUUUCUCUGUGUAUAUAUAUUCUUUCUCGAUCAGUUGUCUUU | 1.5 nM
10 | Id_i_S4_P3E.7_K3.3_C3.3_[T-3C]_[C-2T]_[T-1A]_H3.3_A3.1_F3.1_T3.2 (ssRNA) RNA: UUUGACAACUGAUCGUUCUUUCUCUAACACUAUAUAUUCUUUCUCGAUCAGUUGUCUUU | 113 nM
11 | Id_i_S4_P3E.6_K3.2_C3.3_[T-3C]_[C-2A]_[T-1C]_H3.2_A3.1_F3.1_T3.2 (ssRNA) RNA: UUUGACAACUGAUCGUUCUUUCUCACUAUAUAUAUAUUCUUUCUCGAUCAGUUGUCUUU | 56.5 nM
12 | Id_i_S4_P3E.7_K3.3_C3.3_[T-3C]_[C-2T]_[T-1G]_H3.3_A3.1_F3.1_T3.2 (ssRNA) RNA: UUUGACAACUGAUCGUUCUUUCUCUGACACUAUAUAUUCUUUCUCGAUCAGUUGUCUUU | 424 nM
13 | Id_i_S4_P3E.5_K3.1_C3.3_[T-3A]_[C-2T]_[T-1C]_H3.1_A3.1_F3.1_T3.2 (ssRNA) RNA: UUUGACAACUGAUCGUUCUUUCUAUCUGUAUAUAUAUUCUUUCUCGAUCAGUUGUCUUU | 1.98 nM
14 | Id_i_S4_P3E.6_K3.2_C3.3_[T-3G]_[C-2G]_[T-1C]_H3.2_A3.1_F3.1_T3.2 (ssRNA) RNA: UUUGACAACUGAUCGUUCUUUCUGGCUAUAUAUAUAUUCUUUCUCGAUCAGUUGUCUUU | 1420 nM
15 | Id_i_S4_P3E.6_K3.2_C3.3_[T-3A]_[C-2G]_[T-1C]_H3.2_A3.1_F3.1_T3.2 (ssRNA) RNA: UUUGACAACUGAUCGUUCUUUCUAGCUAUAUAUAUAUUCUUUCUCGAUCAGUUGUCUUU | 537 nM
16 | Id_i_S4_P3E.6_K3.2_C3.3_[T-3C]_[C-2T]_[T-1A]_H3.2_A3.1_F3.1_T3.2 (ssRNA) RNA: UUUGACAACUGAUCGUUCUUUCUCUAUAUAUAUAUAUUCUUUCUCGAUCAGUUGUCUUU | 500 nM
17 | Id_i_S4_P3E.7_K3.3_C3.3_[T-3A]_[C-2T]_[T-1A]_H3.3_A3.1_F3.1_T3.2 (ssRNA) RNA: UUUGACAACUGAUCGUUCUUUCUAUAACACUAUAUAUUCUUUCUCGAUCAGUUGUCUUU | 571 nM
18 | Id_i_S4_P3E.6_K3.2_C3.3_[T-3C]_[C-2T]_[T-1G]_H3.2_A3.1_F3.1_T3.2 (ssRNA) RNA: UUUGACAACUGAUCGUUCUUUCUCUGUAUAUAUAUAUUCUUUCUCGAUCAGUUGUCUUU | 1.92 nM
19 | Id_i_S4_P3E.7_K3.3_C3.3_[T-3C]_[C-2A]_[T-1A]_H3.3_A3.1_F3.1_T3.2 (ssRNA) RNA: UUUGACAACUGAUCGUUCUUUCUCAAACACUAUAUAUUCUUUCUCGAUCAGUUGUCUUU | 110 nM
20 | Id_i_S4_P3E.7_K3.3_C3.3_[T-3A]_[C-2T]_[T-1C]_H3.3_A3.1_F3.1_T3.2 (ssRNA) RNA: UUUGACAACUGAUCGUUCUUUCUAUCACACUAUAUAUUCUUUCUCGAUCAGUUGUCUUU | 346 nM
21 | Id_i_S4_P3E.7_K3.3_C3.3_[T-3A]_[C-2A]_[T-1A]_H3.3_A3.1_F3.1_T3.2 (ssRNA) RNA: UUUGACAACUGAUCGUUCUUUCUAAAACACUAUAUAUUCUUUCUCGAUCAGUUGUCUUU | 451 nM
22 | Id_i_S4_P3E.7_K3.3_C3.3_[T-3C]_[C-2A]_[T-1G]_H3.3_A3.1_F3.1_T3.2 (ssRNA) RNA: UUUGACAACUGAUCGUUCUUUCUCAGACACUAUAUAUUCUUUCUCGAUCAGUUGUCUUU | 572 nM
23 | UCUCUUGGUGUAUAUAGUUCUCUU (ssRNA) [Id_ii_S1_P3E.2_K3.1_C3.2_[C-2G]_[T-1G]_H3.1_A3.1_F3.1_T3.2_[T9G]_[A10T]] | 6.96 nM
24 | Id_i_S2_P3E.7_K3.3_C3.3_[T-3A]_[C-2T]_[T-1A]_H3.3_A3.1_F3.1_T3.2 (ssRNA) RNA: UUUGAUUAAUAUGAUAUCGUUCUUUCUAUAACACUAUAUAUUCUUUCUCGAUAUCAUAUUAAUCUUU | 708 nM
25 | ACAAACUCACACUAUAUAACAAAC (ssRNA) [Id_i_S3_P3E.4_K3.3_C3.2_[C-2T]_[T-1C]_H3.3_A3.1_F3.1_T3.2] | > 2300 nM
26 | UCUCUUGCUGUAUAUACUUCUCUU (ssRNA) [Id_ii_S1_P3E.2_K3.1_C3.2_[C-2G]_[T-1C]_H3.1_A3.1_F3.1_T3.2_[T9C]_[A10T]] | 31.8 nM
27 | UCUCUUUGUAUGUUAUCUCUU (ssRNA) [Ic_S1_P4E.1_K4.1_C4.1_H4.1_A4.1_[A6G]_F4.1_T4.1] | 4.82 nM
28 | UCUCUUGCUGUAUAUAAAUCUCUU (ssRNA) [Id_ii_S1_P3E.2_K3.1_C3.2_[C-2G]_[T-1C]_H3.1_A3.1_F3.1_T3.2_[T9A]] | 15.5 nM
